Biological target: RSV prefusion F (PR-DM) (respiratory syncytial virus A) (UniProt P03420)
Test: cryo-EM structure

RSV prefusion F (PR-DM) (from UniProt P03420) (complex)
stoichiometry N: 3

Source: publication PMC12684077
